Measured values as given in patent publication US20070253950A1 (Pfizer, published 2007).

How the values were obtained:
[1] = molecular target: T1, murine RAGE, full length, on cells (murine, UniProt Q62151 23-402); assay: cell-based ELISA, transfected 293 cells
T1 construct: on transfected or infected 293 cells; also called 293-murine RAGE; cell-surface mRAGE
T1 chain: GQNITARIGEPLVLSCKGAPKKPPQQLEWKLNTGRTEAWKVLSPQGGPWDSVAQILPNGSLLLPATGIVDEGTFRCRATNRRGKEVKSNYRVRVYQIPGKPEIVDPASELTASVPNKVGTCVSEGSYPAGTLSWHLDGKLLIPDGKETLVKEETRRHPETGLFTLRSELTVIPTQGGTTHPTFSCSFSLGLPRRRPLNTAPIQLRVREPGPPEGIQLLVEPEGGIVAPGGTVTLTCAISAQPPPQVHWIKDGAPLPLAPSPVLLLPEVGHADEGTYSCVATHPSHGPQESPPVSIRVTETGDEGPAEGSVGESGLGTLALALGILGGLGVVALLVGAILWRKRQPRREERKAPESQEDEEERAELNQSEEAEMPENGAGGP
Experimental: (§1) Human embryonic kidney 293 cells (American Tissue Type Culture, Manassas, Va.) cells were plated at 5×10⁶ cells per 10 cm² tissue culture plate and cultured overnight at 37° C. The next day cells were transfected with RAGE expression plasmids (pAdori1-3 vector encoding mouse, human, baboon, cynomologus monkey or rabbit RAGE) using LF2000 reagent (Invitrogen, Carlsbad Calif.) at a 4:1 ratio of reagent to plasmid DNA using the manufacturers protocol. Cells were harvested 48 hrs post-transfection using trypsin, washed once with phosphate buffered saline (PBS), then suspended in growth media without serum at a concentration of 2×10⁶ cells/ml.
(§2) Primary antibodies at 1 μg/ml were serially diluted at 1:2 or 1:3 in PBS containing 1% bovine serum albumin (BSA) in a 96-well plate. RAGE-transfected 293 cells or control parental 293 cells (50 μl) at 2×10⁶ cells/ml in serum-free growth medium were added to U-bottom 96 well plate for a final concentration of 1×10⁵ cells/well. The cells were centrifuged at 1600 rpm for 2 minutes. The supernatants were gently discarded by hand with a one-time swing and the plate was patted gently to loose the cell pellet. The diluted primary anti-RAGE antibodies or isotype-matching control antibodies (100 μl) in cold PBS containing 10% fetal calf serum (FCS) were added to the cells and incubated on ice for 1 hour. The cells were stained with 100 μl of diluted secondary anti-IgG antibody HRP conjugates (Pierce Biotechnology, Rockford, Ill.) on ice for 1 hour. Following each step of primary antibody and secondary antibody incubations, the cells were washed 3 times with ice-cold PBS. 100 μl of substrate TMB1 component (BIO FX, TMBW-0100-01) was added to the plate and incubated for 5-30 minutes at room temperature. The color development was stopped by adding 100 μl of 0.18M H₂SO₄. The cells were centrifuged and the supernatants are transferred to a fresh plate and read at 450 nm (Soft MAX pro 4.0, Molecular Devices Corporation, Sunnyvale, Calif.).

[2] = molecular target: T2, cynomolgus monkey RAGE, on cells (cynomolgus monkey, UniProt Q15109 23-404 (human entry)); assay: cell-based ELISA, transfected 293 cells
T2 construct: on transfected 293 cells or endogenous in lung sections; also called 293-cyno monkey RAGE; RAGE in monkey lung
T2 chain: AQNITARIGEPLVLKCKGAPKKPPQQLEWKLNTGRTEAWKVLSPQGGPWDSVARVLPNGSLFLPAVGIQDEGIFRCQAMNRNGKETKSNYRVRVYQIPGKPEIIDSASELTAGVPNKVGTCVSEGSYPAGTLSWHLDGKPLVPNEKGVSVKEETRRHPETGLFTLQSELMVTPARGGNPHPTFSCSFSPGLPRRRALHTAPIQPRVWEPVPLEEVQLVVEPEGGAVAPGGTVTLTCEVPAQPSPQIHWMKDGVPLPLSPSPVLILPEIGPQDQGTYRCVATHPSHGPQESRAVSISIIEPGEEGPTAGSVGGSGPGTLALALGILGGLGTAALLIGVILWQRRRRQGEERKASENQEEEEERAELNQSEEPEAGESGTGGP
Experimental: as §1, §2

[3] = molecular target: T3, human RAGE-Fc fusion protein (human, UniProt Q15109 23-344); assay: ligand competition ELISA, panel 'Blocks hRAGE-Fc interaction with S100-B'; blocked ligand S100-B
T3 construct: amino acids 1-344 of human RAGE appended to the Fc domain of human IgG; also called hRAGE-Fc; huRAGE-Fc

[4] = molecular target: T4, human RAGE-strep tag fusion protein (human, UniProt Q15109 23-344); assay: BIACORE capture assay: hRAGE-SA over antibody captured on anti-human Fc; steady state affinity; FC2
T4 construct: monomeric soluble human RAGE; also called hRAGE-SA; soluble human streptavidin-tagged RAGE
Experimental: (§3) The assays were performed by coating anti-human Fc antibodies onto a CM5 BIA chip with 5000 RU (pH 5.0, 7 min.) in flow cells 1-4. Each antibody was captured by flowing at 2.0 μg/ml over the anti-Fc antibodies in flow cells 2-4 (flow cell 1 was used as a reference).

[5] = molecular target: T5, murine RAGE-strep tag fusion protein (murine, UniProt Q62151 23-343); assay: BIACORE capture assay: mRAGE-SA (SA-Mu RAGE) over antibody captured on anti-human Fc; 1:1 Langmuir global fit; FC4
T5 construct: also called mRAGE-strep; mRAGE-SA
T5 chain: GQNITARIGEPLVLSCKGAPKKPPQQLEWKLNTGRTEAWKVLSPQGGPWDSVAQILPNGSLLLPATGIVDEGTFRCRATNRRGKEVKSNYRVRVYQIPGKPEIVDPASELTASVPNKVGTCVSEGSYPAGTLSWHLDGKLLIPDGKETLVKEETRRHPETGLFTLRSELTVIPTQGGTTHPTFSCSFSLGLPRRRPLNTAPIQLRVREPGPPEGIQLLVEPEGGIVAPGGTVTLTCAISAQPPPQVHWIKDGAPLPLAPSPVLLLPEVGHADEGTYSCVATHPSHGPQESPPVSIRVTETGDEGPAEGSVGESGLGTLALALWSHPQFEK
Experimental: as §3

EC50 [1]: ~1.5 nM
EC50 [2]: ~1.66 nM
IC50 (read off the curve) [3]: ~0.08 µg/mL
Kd [4]: 11 nM
Kd [5]: 2 nM
koff [5]: 0.0041 s⁻¹
kon [5]: 2.1e+06 M⁻¹ s⁻¹
B1: chimeric XT-M4 (antibody, V domains shown)
VH: EVQLVESGGGLVQPGRSLKLSCVVSGFTFNNYWMTWIRQTPGKGLEWVASINNSGDNTYYPDSVKDRFTISRDNAKSTLYLQMNSLRSEDTATYYCTRGGDITTGFDYWGQGVMVTVSS
VL: DIQMTQSPSSMSVSLGDTITITCRASQDVGIYVNWFQQKPGKSPRRMIYRATNLADGVPSRFSGSRSGSIYSLTISSLESEDVADYHCLEFDEHPLTFGSGTKVEIK
modifications: N-linked oligosaccharide at Asn52 (CDR2) on part of the heavy chains
notes: rat XT-M4 variable regions fused to human kappa light chain and human IgG1 heavy chain constant regions; L234A and G237A in the human IgG1 Fc region; also called chimeric antibody XT-M4; XT-M4-A-1
